Test results as given in publication PMC3605331, “Cloning and characterization of a novel cold-active glycoside hydrolase family 1 enzyme with β-glucosidase, β-fucosidase and β-galactosidase activities” (BMC Biotechnology, 2013).

What was measured:
[1] = tested on: T1, O=[N+]([O-])c1ccc(O[C@@H]2O[C@H](CO)[C@@H](O)[C@H](O)[C@H]2O)cc1; assay: purified protein; assay type: biochemical, uncultured bacterium; conditions: 20 mM phosphate buffer, 20°C, substrate 1.0-5.0 mM
T1 construct: E. coli LMG194; monomer

[2] = tested on: T2, O=[N+]([O-])c1ccccc1O[C@@H]1O[C@H](CO)[C@H](O)[C@H](O)[C@H]1O; assay: purified protein; assay type: biochemical, uncultured bacterium; conditions: 20 mM phosphate buffer, 20°C, substrate 1.0-5.0 mM
T2 construct: E. coli LMG194; monomer

BglMKg (uncultured bacterium)
Km [1]: 0.16 ± 0.03 mM
kcat [1]: 11.7 ± 0.26 s⁻¹
kcat/Km [1]: 73400 M⁻¹ s⁻¹
Km [2]: 9.04 ± 1.39 mM
kcat [2]: 12.4 ± 1.35 s⁻¹
kcat/Km [2]: 1370 M⁻¹ s⁻¹
